In US20180030151A1 (MOGAM INSTITUTE FOR BIOMEDICAL RESEARCH, published 2018):
Like-named read-outs stand apart in the source and are kept apart here. Blank lines part the entries; values can stand above or below the binder they belong to.

What was measured:
[1] = molecular target: T1, recombinant human TFPI (tissue factor pathway inhibitor) (human, UniProt P10646 29-304); assay: cell-based or functional assay
[2] = molecular target: T1, recombinant human TFPI (tissue factor …); assay: SPR, Biacore T-200; IgG captured on protein A (CM5), TFPI as analyte
Description: Dissociation of the TFPI associated with the antibody was induced by running 10 mM glycine-HCl (pH 1.5) at a flow rate for 30 seconds. The affinities in terms of kinetic rate constants (Kₒₙ and Koff) and equilibrium dissociation constant (KD) were evaluated using Biacore T-200 evaluation software, and the results are shown in Table 24 below.

[3] = molecular target: T1, recombinant human TFPI (tissue factor …); assay: cell-based or functional assay; remark: listed apart in the source
[4] = molecular target: T1, recombinant human TFPI (tissue factor …); assay: cell-based or functional assay; remark: listed apart in the source
[5] = molecular target: T1, recombinant human TFPI (tissue factor …); assay: cell-based or functional assay; remark: listed apart in the source
[6] = molecular target: T1, recombinant human TFPI (tissue factor …); assay: cell-based or functional assay; remark: listed apart in the source
[7] = molecular target: T1, recombinant human TFPI (tissue factor …); assay: SPR, Biacore T-200; TFPI immobilised on CM5 chip, IgG as analyte
Description: 10 mM of glycine-HCl (pH 1.5) was run at a flow rate of 30 μL/min for 30 seconds, thereby inducing the dissociation of the antibody associated with the TFPI. The affinity in terms of kinetic rate constants (Kₒₙ and Koff) and equilibrium dissociation constant

[8] = molecular target: TFPI in FVIII-deficient plasma (sample dilution); assay: cell-based or functional assay
[9] = molecular target: T1, recombinant human TFPI (tissue factor …); assay: cell-based or functional assay; remark: listed apart in the source

FXa assay % of FXa alone, 2.5 nM Ab, 10 nM TFPI [1]: 11.2% | FXa assay % of FXa alone, 5 nM Ab, 10 nM TFPI [1]: 50.9% | FXa assay OD, 2.5 nM Ab, 10 nM TFPI [1]: 0.091 | FXa assay OD, 5 nM Ab, 10 nM TFPI [1]: 0.413 | FXa assay OD, 10 nM Ab, 10 nM TFPI [1]: 0.677 | FXa assay OD, 20 nM Ab, 10 nM TFPI [1]: 0.665 | Kd [2]: 0.074 nM | % of Normalized, TF/FVIIa/FX complex assay, Ab 1.56 nM [3]: 17.2% | % of Normalized, TF/FVIIa/FX complex assay, Ab 3.13 nM [3]: 18.7% | % of Normalized, TF/FVIIa/FX complex assay, Ab 6.25 nM [3]: 21.5% | % of Normalized, TF/FVIIa/FX complex assay, Ab 12.5 nM [3]: 33.3% | % of Normalized, TF/FVIIa/FX complex assay, Ab 25 nM [3]: 99.6% | % of Normalized, TF/FVIIa/FX complex assay, Ab 50 nM [3]: 102% | % of Normalized, TF/FVIIa/FX complex assay, Ab 100 nM [3]: 102% | effect of inhibiting TFPI, FXa activity assay, Ab 10 nM [4]: ~83% | effect of inhibiting TFPI, FXa activity assay, Ab 20 nM [4]: ~82% | A405, TF/FVIIa/FX complex assay, Ab 1.56 nM [5]: 0.157 | A405, TF/FVIIa/FX complex assay, Ab 3.13 nM [5]: 0.171 | A405, TF/FVIIa/FX complex assay, Ab 6.25 nM [5]: 0.197 | A405, TF/FVIIa/FX complex assay, Ab 12.5 nM [5]: 0.305 | A405, TF/FVIIa/FX complex assay, Ab 25 nM [5]: 0.911 | A405, TF/FVIIa/FX complex assay, Ab 50 nM [5]: 0.935 | A405, TF/FVIIa/FX complex assay, Ab 100 nM [5]: 0.937
B1: clone 3241 (antibody, V domains shown)
VH: EVQLVESGGGLVKPGGSLRLSCAASGFTFSSYAMNWVRQAPGKGLEWVSTITTGGSYTYYADSVEGRFTISRDNAKNSLYLQMNSLRAEDTAVYYCARQDGNFLMDYWGQGTLVTVSS
VL: DVVMTQTPLSLPVTLGQPASISCKSSQSLLDIDGKTYLNWLQQRPGQSPKRLIYLVSKLDSGVPDRFTGSGSGTDFTLKISRVEAEDVGVYYCWQGTHFPFTFGQGTKVEIKR
notes: scFv on yeast at selection; human IgG4/kappa IgG as purified; also called No. 3241 antibody

TF/FVIIa/FXa assay % of 0 nM TFPI, 12.5 nM Ab, 50 nM TFPI [6]: 17.9% | TF/FVIIa/FXa assay % of 0 nM TFPI, 50 nM Ab, 50 nM TFPI [6]: 66.5% | TF/FVIIa/FXa assay % of 0 nM TFPI, 100 nM Ab, 50 nM TFPI [6]: 104% | TF/FVIIa/FXa assay OD, 12.5 nM Ab, 50 nM TFPI [6]: 0.143 OD | TF/FVIIa/FXa assay OD, 25 nM Ab, 50 nM TFPI [6]: 0.248 OD | TF/FVIIa/FXa assay OD, 50 nM Ab, 50 nM TFPI [6]: 0.533 OD | TF/FVIIa/FXa assay OD, 100 nM Ab, 50 nM TFPI [6]: 0.833 OD | Kd [7]: 0.05 nM | ETP vs negative control, thrombin generation assay, Ab 2.5 nM [8]: 122% | thrombin peak vs blank, thrombin generation assay, Ab 2.5 nM [8]: 162% | TFPI inhibitory activity, FXa activity assay, Ab 10 nM [4]: ~58.2% | TFPI inhibitory activity, FXa activity assay, Ab 40 nM [4]: ~85.1% | TFPI inhibitory activity, TF/FVIIa/FXa complex assay, Ab 50 nM [4]: ~54.2% | TFPI inhibitory activity, TF/FVIIa/FXa complex assay, Ab 100 nM [4]: ~94.3% | FXa assay % of FXa alone, 0.625 nM Ab, 10 nM TFPI [9]: 5% | FXa assay % of FXa alone, 2.5 nM Ab, 10 nM TFPI [9]: 8% | FXa assay OD, 0.625 nM Ab, 10 nM TFPI [9]: 0.049 OD | FXa assay OD, 2.5 nM Ab, 10 nM TFPI [9]: 0.078 OD | FXa assay OD, 10 nM Ab, 10 nM TFPI [9]: 0.519 OD | FXa assay OD, 40 nM Ab, 10 nM TFPI [9]: 0.718 OD
B2: clone 308 (antibody, V domains shown)
VH: EVQLVESGGGLVKPGGSLRLSCAASGFTFSSYAMNWVRQAPGKGLEWVSTITTGGSYTYYADSVKGRFTISRDNAKNSLYLQMNSLRAEDTAVYYCARQDGNFLMDYWGQGTLVTVSS
VL: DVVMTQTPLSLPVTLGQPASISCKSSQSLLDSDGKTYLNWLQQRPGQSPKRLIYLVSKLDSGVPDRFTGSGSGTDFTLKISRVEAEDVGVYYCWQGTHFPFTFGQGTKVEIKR
notes: Humanized form of T417, IgG
